Measured values published in paper PMC9751095.
pKd: −log10 of the molar value.

Target: Myc-TRAP1 (human) (UniProt Q12931)
Assay: SPR; printed as "Ka 26 µM"
Details: enzyme; chains chain; remark: other sources report otherwise

Sequence of purified recombinant human cyclophilin D, P30405 30-207 (P30405 30-207): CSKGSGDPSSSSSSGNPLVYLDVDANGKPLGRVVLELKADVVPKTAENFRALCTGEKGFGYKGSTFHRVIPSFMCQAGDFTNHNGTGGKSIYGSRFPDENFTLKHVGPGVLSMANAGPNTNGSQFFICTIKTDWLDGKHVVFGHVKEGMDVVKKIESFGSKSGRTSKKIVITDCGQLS
Sequence of Myc-TRAP1 (human) (Q12931 60-704): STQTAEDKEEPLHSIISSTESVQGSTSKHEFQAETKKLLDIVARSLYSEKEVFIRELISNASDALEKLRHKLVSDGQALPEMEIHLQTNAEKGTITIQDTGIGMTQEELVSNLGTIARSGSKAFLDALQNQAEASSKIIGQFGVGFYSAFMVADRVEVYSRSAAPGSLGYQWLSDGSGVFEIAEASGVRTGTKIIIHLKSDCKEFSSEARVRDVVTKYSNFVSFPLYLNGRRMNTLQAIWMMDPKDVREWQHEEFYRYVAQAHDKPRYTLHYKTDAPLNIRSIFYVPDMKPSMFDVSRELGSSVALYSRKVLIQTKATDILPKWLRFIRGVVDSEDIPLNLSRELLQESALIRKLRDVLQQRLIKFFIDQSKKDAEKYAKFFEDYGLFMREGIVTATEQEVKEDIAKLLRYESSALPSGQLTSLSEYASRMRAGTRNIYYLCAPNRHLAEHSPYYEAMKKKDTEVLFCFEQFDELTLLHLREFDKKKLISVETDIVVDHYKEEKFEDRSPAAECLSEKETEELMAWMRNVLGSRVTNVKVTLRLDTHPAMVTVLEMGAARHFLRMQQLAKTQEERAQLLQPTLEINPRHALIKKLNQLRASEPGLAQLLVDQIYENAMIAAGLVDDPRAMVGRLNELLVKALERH

purified recombinant human cyclophilin D, P30405 30-207
pKd: 4.59
